This note sets out measurements from patent US20060034860A1 (CELLVIR, published 2006).

For assay [1], the target named is T1, Human RNUT1 (prey024605), prey fragments (Human, UniProt O95149 1-360).
T1 construct: also called Snurportin1; Snurportin
The assay can be described thus: yeast two-hybrid screen, bait IN (pB27), CEMC7 random primed cDNA prey library; table of bait-prey interactions.

The target of assay [2] is T2, Human HBOA (prey001626), prey fragments (Human, UniProt O95251 1-611).
T2 construct: also called HBO1
The assay can be described thus: yeast two-hybrid screen, bait IN (pB27), CEMC7 oligo dT primed cDNA prey library; table of bait-prey interactions.

The target in assay [3] is Human EIF3S3 (prey024567), prey fragments (Human, UniProt O15372 1-352). Described as above.
For assay [4], the target named is T3, PolyrC-Binding Protein PCBP1 (prey6634), prey fragments (Human, UniProt Q15365 1-356).
T3 construct: also called polyRC BP1; HNRPE1
In words: yeast two-hybrid screen, bait VPU_v1 (pB27), Human CEMC7 dT Primed prey library; table of bait-prey interactions.

Assay [5] addresses T4, ATF6 alpha (prey34104, hATF6), prey fragments (Human, UniProt P18850 1-670).
T4 construct: also called prey34106
T4 sequence: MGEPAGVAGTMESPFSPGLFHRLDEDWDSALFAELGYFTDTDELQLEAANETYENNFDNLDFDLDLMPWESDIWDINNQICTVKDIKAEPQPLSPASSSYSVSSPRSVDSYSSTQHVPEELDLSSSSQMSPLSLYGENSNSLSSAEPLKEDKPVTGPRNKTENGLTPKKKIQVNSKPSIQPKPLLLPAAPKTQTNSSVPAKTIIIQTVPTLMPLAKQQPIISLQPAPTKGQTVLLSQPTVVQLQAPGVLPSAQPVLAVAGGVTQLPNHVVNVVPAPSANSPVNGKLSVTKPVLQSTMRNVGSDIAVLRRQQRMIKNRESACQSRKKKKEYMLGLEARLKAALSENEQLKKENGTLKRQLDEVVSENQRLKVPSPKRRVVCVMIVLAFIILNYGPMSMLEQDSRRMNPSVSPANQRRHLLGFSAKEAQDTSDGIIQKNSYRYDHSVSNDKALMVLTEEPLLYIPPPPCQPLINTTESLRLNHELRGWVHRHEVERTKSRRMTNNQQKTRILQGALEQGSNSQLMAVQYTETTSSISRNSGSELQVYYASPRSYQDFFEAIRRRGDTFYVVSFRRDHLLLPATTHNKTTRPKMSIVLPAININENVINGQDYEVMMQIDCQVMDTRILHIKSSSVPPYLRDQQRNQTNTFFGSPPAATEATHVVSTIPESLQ
The assay can be described thus: yeast two-hybrid screen, bait TM_v1 (pB6), Human CEMC7 Random Primed prey library; table of bait-prey interactions.

The target in assay [6] is T5, sterol regulatory element binding protein 2 (hSREBF2, hgx33), prey fragments (Human, UniProt Q12772 1-1141).
T5 construct: also called SREBP2
T5 sequence: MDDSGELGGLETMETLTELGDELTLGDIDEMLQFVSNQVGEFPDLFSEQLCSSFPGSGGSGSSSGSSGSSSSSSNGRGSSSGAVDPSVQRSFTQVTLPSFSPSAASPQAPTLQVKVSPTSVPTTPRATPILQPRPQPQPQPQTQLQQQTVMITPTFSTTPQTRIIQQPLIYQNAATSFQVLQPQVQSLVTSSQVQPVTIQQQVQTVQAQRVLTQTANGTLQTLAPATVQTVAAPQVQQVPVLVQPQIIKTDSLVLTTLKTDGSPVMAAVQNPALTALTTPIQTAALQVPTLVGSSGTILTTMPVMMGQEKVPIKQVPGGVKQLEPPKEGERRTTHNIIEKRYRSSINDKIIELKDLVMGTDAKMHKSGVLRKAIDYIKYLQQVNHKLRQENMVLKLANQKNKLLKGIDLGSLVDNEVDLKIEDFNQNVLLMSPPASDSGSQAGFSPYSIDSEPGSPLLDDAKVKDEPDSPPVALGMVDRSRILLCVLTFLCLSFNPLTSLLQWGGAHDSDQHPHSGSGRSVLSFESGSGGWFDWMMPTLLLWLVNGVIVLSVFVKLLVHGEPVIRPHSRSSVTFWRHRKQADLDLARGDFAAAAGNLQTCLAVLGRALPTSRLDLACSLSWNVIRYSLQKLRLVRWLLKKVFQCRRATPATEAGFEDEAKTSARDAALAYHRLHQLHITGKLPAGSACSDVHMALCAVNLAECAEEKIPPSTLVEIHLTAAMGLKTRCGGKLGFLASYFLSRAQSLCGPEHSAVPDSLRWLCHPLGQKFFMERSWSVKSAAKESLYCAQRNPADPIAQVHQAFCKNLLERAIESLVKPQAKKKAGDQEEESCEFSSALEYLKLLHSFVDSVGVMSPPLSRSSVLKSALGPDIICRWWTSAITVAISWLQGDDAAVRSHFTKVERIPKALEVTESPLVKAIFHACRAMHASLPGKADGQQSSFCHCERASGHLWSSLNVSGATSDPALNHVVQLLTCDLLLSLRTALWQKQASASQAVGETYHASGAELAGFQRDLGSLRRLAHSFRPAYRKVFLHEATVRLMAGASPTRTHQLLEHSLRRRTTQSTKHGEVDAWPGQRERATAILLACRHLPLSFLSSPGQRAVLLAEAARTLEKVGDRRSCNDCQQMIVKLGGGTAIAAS
The assay is described as above.

The target of assay [7] is T6, sterol regulatory element-binding protein 1 (hSREBF1, prey15532), prey fragments (Human, UniProt P36956 1-1147).
T6 construct: also called SREBP1; hSREBP 1
T6 sequence: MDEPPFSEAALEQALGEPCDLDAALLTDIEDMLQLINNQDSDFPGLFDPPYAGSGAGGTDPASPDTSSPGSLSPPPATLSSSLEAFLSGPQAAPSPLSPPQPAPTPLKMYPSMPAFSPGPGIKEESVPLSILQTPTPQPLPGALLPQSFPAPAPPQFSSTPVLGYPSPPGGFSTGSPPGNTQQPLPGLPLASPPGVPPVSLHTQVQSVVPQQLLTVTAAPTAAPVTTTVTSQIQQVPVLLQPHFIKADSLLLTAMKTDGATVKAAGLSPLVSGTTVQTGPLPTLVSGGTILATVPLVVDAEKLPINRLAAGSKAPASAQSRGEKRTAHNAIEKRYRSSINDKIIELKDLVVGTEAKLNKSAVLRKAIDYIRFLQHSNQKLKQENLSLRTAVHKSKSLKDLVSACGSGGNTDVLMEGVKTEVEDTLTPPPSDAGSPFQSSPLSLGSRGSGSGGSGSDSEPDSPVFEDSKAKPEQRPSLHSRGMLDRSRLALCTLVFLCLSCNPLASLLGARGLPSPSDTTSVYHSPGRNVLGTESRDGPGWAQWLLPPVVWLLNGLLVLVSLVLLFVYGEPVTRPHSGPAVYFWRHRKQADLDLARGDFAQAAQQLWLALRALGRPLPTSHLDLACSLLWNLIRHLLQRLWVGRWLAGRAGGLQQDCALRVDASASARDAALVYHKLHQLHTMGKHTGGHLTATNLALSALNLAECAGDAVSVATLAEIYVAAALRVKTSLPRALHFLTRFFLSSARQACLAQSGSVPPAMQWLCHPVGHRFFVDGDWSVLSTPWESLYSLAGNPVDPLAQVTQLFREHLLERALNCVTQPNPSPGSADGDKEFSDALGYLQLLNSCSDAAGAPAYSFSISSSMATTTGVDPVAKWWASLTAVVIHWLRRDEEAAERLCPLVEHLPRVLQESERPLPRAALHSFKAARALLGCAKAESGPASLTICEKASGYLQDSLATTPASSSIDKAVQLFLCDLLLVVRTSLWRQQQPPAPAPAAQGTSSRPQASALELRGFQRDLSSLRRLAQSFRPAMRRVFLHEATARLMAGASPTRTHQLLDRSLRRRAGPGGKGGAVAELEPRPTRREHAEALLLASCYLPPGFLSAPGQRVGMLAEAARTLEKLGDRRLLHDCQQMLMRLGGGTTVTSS
The description is as above.

T3 sequence (Q15365 whole entry, the tested form may be a part): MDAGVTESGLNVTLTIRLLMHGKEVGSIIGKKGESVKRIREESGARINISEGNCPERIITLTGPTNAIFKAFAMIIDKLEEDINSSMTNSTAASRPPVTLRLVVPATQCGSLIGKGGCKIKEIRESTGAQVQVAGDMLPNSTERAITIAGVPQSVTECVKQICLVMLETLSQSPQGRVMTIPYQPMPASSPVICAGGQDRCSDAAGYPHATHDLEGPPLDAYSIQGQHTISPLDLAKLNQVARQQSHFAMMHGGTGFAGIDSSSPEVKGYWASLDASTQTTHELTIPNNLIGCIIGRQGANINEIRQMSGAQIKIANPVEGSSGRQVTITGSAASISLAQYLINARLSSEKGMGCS
T2 sequence (O95251 whole entry, the tested form may be a part): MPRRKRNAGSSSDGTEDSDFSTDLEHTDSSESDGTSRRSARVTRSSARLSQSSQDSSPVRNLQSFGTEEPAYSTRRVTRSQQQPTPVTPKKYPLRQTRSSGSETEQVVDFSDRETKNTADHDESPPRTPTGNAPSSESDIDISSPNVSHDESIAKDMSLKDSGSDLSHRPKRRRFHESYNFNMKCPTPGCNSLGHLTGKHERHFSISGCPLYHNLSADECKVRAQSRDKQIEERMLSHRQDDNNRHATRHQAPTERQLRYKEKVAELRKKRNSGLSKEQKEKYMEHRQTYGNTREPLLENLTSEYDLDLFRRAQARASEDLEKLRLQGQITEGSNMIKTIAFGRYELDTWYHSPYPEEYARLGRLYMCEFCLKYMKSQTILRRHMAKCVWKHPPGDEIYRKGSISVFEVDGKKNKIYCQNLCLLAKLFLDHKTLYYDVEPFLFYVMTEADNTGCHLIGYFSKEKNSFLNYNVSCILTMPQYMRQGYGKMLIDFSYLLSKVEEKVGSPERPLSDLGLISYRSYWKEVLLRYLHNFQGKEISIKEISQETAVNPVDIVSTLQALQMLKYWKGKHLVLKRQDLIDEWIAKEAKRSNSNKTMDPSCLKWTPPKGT
Chain of Human EIF3S3 (prey024567), prey fragments (O15372 whole entry, the tested form may be a part): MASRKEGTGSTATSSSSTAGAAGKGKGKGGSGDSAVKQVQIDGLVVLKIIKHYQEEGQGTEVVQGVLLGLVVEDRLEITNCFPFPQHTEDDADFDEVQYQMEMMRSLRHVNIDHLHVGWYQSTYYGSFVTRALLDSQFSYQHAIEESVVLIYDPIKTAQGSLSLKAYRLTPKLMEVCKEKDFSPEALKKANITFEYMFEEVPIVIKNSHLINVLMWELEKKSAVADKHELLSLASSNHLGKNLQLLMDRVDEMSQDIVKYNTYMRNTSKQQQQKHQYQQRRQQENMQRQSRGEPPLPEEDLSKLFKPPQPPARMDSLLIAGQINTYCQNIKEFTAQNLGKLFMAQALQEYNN
T1 sequence (O95149 whole entry, the tested form may be a part): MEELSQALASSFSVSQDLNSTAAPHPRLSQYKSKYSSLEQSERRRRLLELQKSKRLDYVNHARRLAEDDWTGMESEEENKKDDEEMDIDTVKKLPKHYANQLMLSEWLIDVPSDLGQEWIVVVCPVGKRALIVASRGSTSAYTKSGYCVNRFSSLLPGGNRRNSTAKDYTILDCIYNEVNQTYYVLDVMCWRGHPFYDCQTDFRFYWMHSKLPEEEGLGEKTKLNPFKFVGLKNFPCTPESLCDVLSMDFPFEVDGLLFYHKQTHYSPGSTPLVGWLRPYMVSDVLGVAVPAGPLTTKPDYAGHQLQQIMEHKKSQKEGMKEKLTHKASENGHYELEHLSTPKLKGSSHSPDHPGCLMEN

B1: HIV-1 Integrase (IN), bait IN (enzyme)
chain: FLDGIDKAQEEHEKYHSNWRAMASDFNLPPVVAKEIVASCDKCQLKGEAMHGQVDCSPGIWQLDCTHLEGKVILVAVHVASGYIEAEVIPAETGQETAYFLLKLAGRWPVTTIHTDNGSNFTSATVKAACWWAGIKQEFGIPYNPQSQGVVESMNKELKKIIGQVRDQAEHLKTAVQMAVFIHNFKRKGGIGGYSAGERIVDIIATDIQTKELQKQITKIQNFRVYYRDSRDPLWKGPAKLLWKGEGAVVIQDNSDIKVVPRRKAKIIRDYGKQMAGDDCVAGRQDED
With B1, the binding result in assay [1], in assay [2] and in assay [3] was “binds” throughout.

B2: HIV-1 Vpu, bait VPU_v1 (other)
chain: LQSLQVLAIVALVVATIIAIVVWTIVFIEYRKILRQRKIDRLINRITERAEDSGNESDGDQEELSALVERGHLAPWDVDDL
notes: It holds the N-terminal transmembrane anchor domain
For B2, the binding result in assay [4] is listed as “binds”.

B3: cytoplasmic domain of HIV-1 Env TM Gp41, bait TM_v1 (other)
chain: VVLSIVNRVRQGYSPLSFQTHLPAQRGPDRPDGIEEEGGERDRDRSGPLVDGFLAIIWVDLRSLCLFSYHRLRDLLLIVTRIVELLGRRGWGVLKYWWNLLQYWIQELKNSAVSLLNATAIAVAEGTDRVIEILQRAFRAVLHIPVRIRQGLERALL
notes: also called TM cyto; TM Gp41 cytoplasmic domain
For B3, the binding result in assay [5], in assay [6] and in assay [7] was “binds” in each case.
